Each block holds one binder with its values, some of them ahead of it.
Experiments:
human LAG-3-his [1] = target: T1, human LAG-3-his (human, UniProt P18627 23-422); test: ELISA on human LAG3, sample stored at -80 C for 60 days
T1 construct: range 23-422; also called hLAG-3-his; hLAG-3
T1 sequence: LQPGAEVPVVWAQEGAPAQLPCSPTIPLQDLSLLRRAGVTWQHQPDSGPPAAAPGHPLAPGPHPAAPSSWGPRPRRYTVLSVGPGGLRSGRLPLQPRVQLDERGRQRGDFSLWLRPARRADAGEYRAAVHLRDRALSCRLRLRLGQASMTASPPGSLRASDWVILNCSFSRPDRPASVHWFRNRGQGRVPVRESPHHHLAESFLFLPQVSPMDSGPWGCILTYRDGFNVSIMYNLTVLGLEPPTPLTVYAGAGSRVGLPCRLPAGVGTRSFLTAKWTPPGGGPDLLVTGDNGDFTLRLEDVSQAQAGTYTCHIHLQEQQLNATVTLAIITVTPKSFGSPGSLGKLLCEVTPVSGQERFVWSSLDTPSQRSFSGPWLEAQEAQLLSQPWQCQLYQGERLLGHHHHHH

human PD-1 (hFc/his tag) [2] = target: T2, human PD-1 (hFc/his tag) (human, UniProt Q15116 21-167); test: ELISA on human PD-1, sample stored at -80 C for 60 days
T2 construct: range 21-167; not shown: hFc or his tag
T2 sequence (Q15116 21-167, form in doubt): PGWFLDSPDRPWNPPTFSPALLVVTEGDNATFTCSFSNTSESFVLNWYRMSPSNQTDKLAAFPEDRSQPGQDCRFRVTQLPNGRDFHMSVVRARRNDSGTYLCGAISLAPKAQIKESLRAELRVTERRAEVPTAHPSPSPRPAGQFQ

human PD-1 (hFc/his tag) [3] = target: T2, human PD-1 (hFc/his tag); test: ELISA on human PD-1
human PD-1 (hFc/his tag) [4] = target: T2, human PD-1 (hFc/his tag); test: ELISA on human PD-1, sample kept at 37 C for 10 days
human LAG-3-his [5] = target: T1, human LAG-3-his; test: ELISA on human LAG-3
bio-LAG3-mFc [6] = target: T3, bio-LAG3-mFc (human, UniProt P18627 23-450, biotin-labelled); test: blocking of LAG3 binding to Daudi cells
T3 construct: also called hLAG-3
T3 sequence (looked up): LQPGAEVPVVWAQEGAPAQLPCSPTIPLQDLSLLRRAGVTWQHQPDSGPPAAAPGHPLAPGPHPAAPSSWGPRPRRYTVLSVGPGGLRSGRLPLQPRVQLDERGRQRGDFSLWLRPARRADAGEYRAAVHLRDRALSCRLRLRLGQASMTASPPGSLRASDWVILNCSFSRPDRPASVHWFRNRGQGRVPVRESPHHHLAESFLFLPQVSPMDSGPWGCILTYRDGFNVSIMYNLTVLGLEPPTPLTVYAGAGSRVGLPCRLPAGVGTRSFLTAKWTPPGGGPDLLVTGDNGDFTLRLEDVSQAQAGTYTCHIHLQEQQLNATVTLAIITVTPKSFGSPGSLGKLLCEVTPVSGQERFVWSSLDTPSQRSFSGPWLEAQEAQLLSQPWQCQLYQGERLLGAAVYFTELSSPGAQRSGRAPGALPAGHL
Method: The Daudi cell line (ATCC, CCL-213) was expanded and seeded into 96-well microplate at a density of 2×10⁵ cells/well, and then centrifuged at 1600 rpm for 10 min; thereafter the cells were fixed with 100 μl/well of a fixative solution for immunostaining (Shanghai Beyotime Biotechnology Co., Ltd., Cat. No.: P0098) for half an hour at room temperature. After washing with PBS (BasalMedia Biology, Cat. No.: B320) once, 5% milk was added with 230 μl per well, and the microplate was incubated for 2 hours at 37° C. for blocking, then was washed three times with PBST. […] The microplate was then incubated for 1 hour at 37° C. and washed 5 times with PBST. 50 μl/well of 1:1000 diluted streptavidin-HRP secondary antibody (GenScript, Cat. No.: M00091) was added to the microplate and incubated for 1 hour at 37° C. After washing the microplate 5 times with PBST, 50 μl/well TMB (Surmodic, Cat. No.: TTMB-1000-01) was added to the microplate for color development, and 50 μl/well 1M H₂SO₄ was added to stop the reaction. The microplate was then read by a microplate reader (MuitiskanGo Thermo, model 511919200), and the data were analyzed using GraphPad prism 5.

human LAG-3-his [7] = target: T1, human LAG-3-his; test: ELISA on human LAG3, sample stored at -80 C for 60 days; sample stored at -80 C for 60 days (reference value in brackets)
human LAG-3-his [8] = target: T1, human LAG-3-his; test: ELISA on human LAG3, sample kept at 37 C for 10 days
Bio-LAG-his = target: T4, Bio-LAG-his (UniProt P18627 23-450, biotin-labeled); test: double-sandwich ELISA: plate coated with PD-1, bispecific titrated, detected with Bio-LAG-his
T4 construct: Detection reagent of the double-sandwich ELISA; also called biotin-labeled LAG-3-his (ACROBiosystems); not shown: his tag of the bought product
T4 sequence (looked up): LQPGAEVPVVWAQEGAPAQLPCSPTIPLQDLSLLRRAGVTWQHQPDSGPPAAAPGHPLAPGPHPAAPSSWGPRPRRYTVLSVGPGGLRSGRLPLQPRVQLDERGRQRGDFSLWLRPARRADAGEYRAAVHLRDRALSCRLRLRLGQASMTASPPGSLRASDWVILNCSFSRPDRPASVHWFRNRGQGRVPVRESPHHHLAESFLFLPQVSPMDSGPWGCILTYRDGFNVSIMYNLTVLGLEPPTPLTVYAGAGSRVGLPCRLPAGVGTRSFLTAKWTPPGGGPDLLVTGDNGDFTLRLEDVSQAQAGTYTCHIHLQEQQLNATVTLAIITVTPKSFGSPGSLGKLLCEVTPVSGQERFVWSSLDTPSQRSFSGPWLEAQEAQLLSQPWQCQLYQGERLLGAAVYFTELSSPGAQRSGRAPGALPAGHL
Method: Finally, 50 μl/well of 1M H₂SO₄ was added to stop the reaction.

human PD-1 (hFc/his tag) [9] = target: T2, human PD-1 (hFc/his tag); test: ELISA on coated human PD-1, OD450 (Example 13) [panel b]
human LAG-3-his [10] = target: T1, human LAG-3-his; test: ELISA on human LAG3, sample kept at 37 C for 5 days
human PD-1 (hFc/his tag) [11] = target: T2, human PD-1 (hFc/his tag); test: ELISA on human PD-1, sample kept at 37 C for 5 days
human PD-1 (hFc/his tag) [12] = target: T2, human PD-1 (hFc/his tag); test: blocking of PD-1 binding to PD-L1
human LAG-3-his [13] = target: T1, human LAG-3-his; test: ELISA on coated human LAG-3, OD450 (Example 3, Example 13) [panel a]
bio-LAG3-mFc [14] = target: T3, bio-LAG3-mFc; test: blocking ELISA on fixed Daudi cells: antibody titrated against bio-LAG3-mFc binding to Daudi cells (MHC II), streptavidin-HRP, OD450 (Example 4) [panel b]
human LAG-3-his [15] = target: T1, human LAG-3-his; test: ELISA on hLAG-3
Method: (§1) After discarding the liquid, a blocking solution of 5% skimmed milk (Bright skimmed milk powder) diluted with PBS was added at 230 μl per well, followed by incubating at 37° C. for 3 hours or 4° C. overnight (16-18 hours) for blocking. Subsequently, the blocking solution was discarded, and the micropiate was washed 5 times with PBST buffer (pH 7.4 PBS containing 0.05% tweeen-20). Then 50 μl/well of the supernatant (containing the antibody to be tested) or a starting concentration of 10 μg/ml of the antibody to be tested, which was diluted 5 times in gradient, was added, followed by incubating the mixture for 1 hour at 37° C. […] After washing the microplate 5 times with PBST, 50 μl/well TIMB chromogenic substrate (KPL, Cat. No.: 52-00-03) was added, and then incubated for […] at room temperature. Finally, 50 μl/well of 1 M H₂SO₄ was added to stop the reaction. The absorbance value at 450 nm was read by […] GO microplate reader (ThermoFisher, Cat. No.: 51119200). The clones with high affinity were selected according to the OD value or the EC₅₀ value was calculated (for antibodies with known concentrations).

human LAG-3-his [16] = target: T1, human LAG-3-his; test: ELISA on coated human LAG-3-his, anti-human HRP, OD450 (Example 3) [panel a]
Method: as §1

bio-LAG3-mFc [17] = target: T3, bio-LAG3-mFc; test: blocking ELISA, LAG-3 on Daudi cells
human LAG-3-his [18] = target: T1, human LAG-3-his; test: ELISA on hLAG-3; remark: listed apart in the source
Method: as §1

bio-LAG3-mFc [19] = target: T3, bio-LAG3-mFc; test: blocking ELISA, LAG-3 on Daudi cells; remark: listed apart in the source

- EC50 (human LAG-3-his [1]): 0.298 nM
- EC50 (human PD-1 (hFc/his tag) [2]): 0.227 nM
- EC50 (human PD-1 (hFc/his tag) [3]): 0.128 nM
- EC50 (human PD-1 (hFc/his tag) [4]): 0.324 nM
- EC50 (human LAG-3-his [5]): 0.179 nM
- IC50 (bio-LAG3-mFc [6]): 77.5 nM
- EC50 (human LAG-3-his [7]): 0.298 nM
- EC50 (human LAG-3-his [8]): 0.392 nM
- EC50 (Bio-LAG-his): 1.09 nM
- EC50 (read off the curve) (human PD-1 (hFc/his tag) [9]): ~0.1 nM
- EC50 (human LAG-3-his [10]): 0.251 nM
- EC50 (human PD-1 (hFc/his tag) [11]): 0.293 nM
- IC50 (human PD-1 (hFc/his tag) [12]): 0.268 nM
- EC50 (read off the curve) (human LAG-3-his [13]): ~0.2 nM
B1: bispecific antibody (SBody) LB2371 (bispecific antibody, human IgG4 S228P, kappa)
light: EIVLTQSPATLSLSPGERATLSCRASKGVSTSGYSYLHWYQQKPGQAPRLLIYLASYLESGVPARFSGSGSGTDFTLTISSLEPEDFAVYYCQHSRDLPLTFGGGTKVEIKRTVAAPSVFIFPPSDEQLKSGTASVVCLLNNFYPREAKVQWKVDNALQSGNSQESVTEQDSKDSTYSLSSTLTLSKADYEKHKVYACEVTHQGLSSPVTKSFNRGEC
heavy: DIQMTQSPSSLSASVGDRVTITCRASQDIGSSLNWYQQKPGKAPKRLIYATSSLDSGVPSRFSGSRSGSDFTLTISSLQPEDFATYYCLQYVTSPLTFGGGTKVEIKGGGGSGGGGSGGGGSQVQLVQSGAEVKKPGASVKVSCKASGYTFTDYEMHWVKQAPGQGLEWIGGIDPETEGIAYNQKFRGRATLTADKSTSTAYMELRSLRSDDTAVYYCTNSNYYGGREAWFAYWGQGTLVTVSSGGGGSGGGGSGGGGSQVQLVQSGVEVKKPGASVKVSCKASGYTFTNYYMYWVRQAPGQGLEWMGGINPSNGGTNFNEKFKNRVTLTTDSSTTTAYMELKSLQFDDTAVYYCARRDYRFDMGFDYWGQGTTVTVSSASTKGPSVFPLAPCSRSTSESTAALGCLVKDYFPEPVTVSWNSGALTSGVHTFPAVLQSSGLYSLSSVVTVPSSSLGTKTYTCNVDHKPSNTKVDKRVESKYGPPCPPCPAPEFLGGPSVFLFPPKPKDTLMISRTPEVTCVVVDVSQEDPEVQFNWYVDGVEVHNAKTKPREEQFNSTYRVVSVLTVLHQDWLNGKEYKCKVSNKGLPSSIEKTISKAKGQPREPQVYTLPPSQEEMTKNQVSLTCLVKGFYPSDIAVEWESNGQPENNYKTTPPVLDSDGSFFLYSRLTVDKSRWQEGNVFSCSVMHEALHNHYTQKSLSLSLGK
notes: Ab2317VL-(G4S)3-Ab2317VH-(G4S)3-PemVH-Hc (hIgG4)

- IC50 (read off the curve) (bio-LAG3-mFc [14]): ~2 nM
- EC50 (human LAG-3-his [15]): 0.41 nM
- EC50 (read off the curve) (human LAG-3-his [16]): ~0.4 nM
- IC50 (bio-LAG3-mFc [17]): 1.55 nM
- EC50 (human LAG-3-his [18]): 0.166 nM
- IC50 (bio-LAG3-mFc [19]): 2.3 nM
- fold better IC50 than Ref (bio-LAG3-mFc [19]): ~4 fold
B2: chimeric antibody mab23c (antibody, human IgG4 S228P, kappa, V domains shown)
VH: QVQLQQSGAELVRPGASVTLSCKASGYTFTDYEMHWVKQTPVHGLEWIGGIDPETEGIAYNQKFRGKAILTADKSSITAYMELRSLTSEDSAVYYCTNSNYYGGREAWFAYWGQGTLVTVSG
VL: DIQMIQSPSSLSASLGERVSLTCRASQDIGSSLNWLQQEPDGTIKRLIYATSSLDSGVPKRFSGSRSGSDYSLTISSLESEDFVDYYCLQYVTSPLTFGAGTKLELKR
notes: hIgG4

Reference: US20220340657A1 (L AND L BIO CO LTD NINGBO CHINA, published 2022)
